Patent US20230381281A1, “PHARMACEUTICAL COMPOSITION COMPRISING GLUCAGON/GLP-1/GIP TRIPLE AGONIST OR LONG-ACTING CONJUGATE THEREOF FOR PREVENTING OR TREATING LUPUS-RELATED DISEASES” (HANMI PHARM. CO., LTD., priority 2020, published 2023)
Bridge positions count the residues as written; N and C are the ends. Square brackets hold non-standard residues; d marks the D form. Ends that are not written are not given here. * marks the point of attachment. Acetyl(2-(4-imidazolyl)) = O=C(Cc1c[nH]cn1)*; Aib = CC(C)(N)C(=O)O

B1: Triple agonist of SEQ ID NO: 91 (peptide)
peptide: {Acetyl(2-(4-imidazolyl))}-[Aib]EGTFTSDYSIAMDEIHQKDFVDWLLAEKC
modifications: bridge 15-19
B2: Triple agonist of SEQ ID NO: 96 (peptide)
peptide: Y[Aib]QGTFTSDYSKYLDEKRAKEFVQWLLDHCPSSGQPPPS
modifications: bridge 16-20
B3: Triple agonist of SEQ ID NO: 77 (peptide)
peptide: Y[Aib]QGTFTSDYSKYLDEKAAKDFVQWLLDHHPSSGQPPPSC
modifications: bridge 16-20
B4: Triple agonist of SEQ ID NO: 8 (peptide)
peptide: H[Aib]QGTFTSDVSKYLDGQAAQEFVAWLLKGC
B5: Triple agonist of SEQ ID NO: 93 (peptide)
peptide: {Acetyl(2-(4-imidazolyl))}-[Aib]QGTFTSDYSKYLDEKRQKEFVNWLLAQKC
modifications: bridge 15-19
B6: Triple agonist of SEQ ID NO: 84 (peptide)
peptide: {Acetyl(2-(4-imidazolyl))}-[Aib]EGTFTSDYSIAMDEIHQKDFVDWLLAEC
modifications: bridge 15-19
B7: Triple agonist of SEQ ID NO: 82 (peptide)
peptide: {Acetyl(2-(4-imidazolyl))}-[Aib]QGTFTSDYSKYLDEKRQKEFVQWLLDTC
modifications: bridge 15-19
B8: Triple agonist of SEQ ID NO: 95 (peptide)
peptide: Y[Aib]QGTFTSDYSKYLDEKRAKEFVQWLLCHHPSSGQPPPS
modifications: bridge 16-20
B9: Triple agonist of SEQ ID NO: 73 (peptide)
peptide: {Acetyl(2-(4-imidazolyl))}-[Aib]QGTFTSDYSKYLDECRAKEFVQWLLDHHPSSGQPPPS
modifications: bridge 15-19
B10: Triple agonist of SEQ ID NO: 71 (peptide)
peptide: Y[Aib]QGTFTSDYSKYLDERACKDFVQWLLDHHPSSGQPPPS
modifications: bridge 16-20
B11: Triple agonist of SEQ ID NO: 74 (peptide)
peptide: {Acetyl(2-(4-imidazolyl))}-[Aib]QGTFTSDYSKCLDEKRAKEFVQWLLDHHPSSGQPPPS
modifications: bridge 15-19
B12: Triple agonist of SEQ ID NO: 88 (peptide)
peptide: {Acetyl(2-(4-imidazolyl))}-[Aib]QGTFTSDYSKYLDEKRQKEFVQWLLNTKC
modifications: bridge 15-19
B13: Triple agonist of SEQ ID NO: 92 (peptide)
peptide: {Acetyl(2-(4-imidazolyl))}-[Aib]QGTFTSDYSIAMDEIHQKDFVNWLLAQKC
modifications: bridge 15-19
B14: Triple agonist of SEQ ID NO: 80 (peptide)
peptide: H[Aib]EGTFTSDYSIAMDEIHQKDFVDWLLAEKC
modifications: bridge 16-20

Target: human GLP-1 receptor (human, UniProt P43220 24-463)
Test: cell-based or functional assay

Binder	In vitro activity compared to native peptide (%) vs GLP-1 [%]
B1	31.9
B2	34.4
B3	38.7
B4	14.2
B5	5.7
B6	4.2
B7	9.5
B8	2.1
B9	22.6
B10	90.1
B11	12.9
B12	9.6
B13	0.8
B14	8.1

Target: human GCG receptor (human, UniProt P47871 26-477)
Test: cell-based or functional assay

Sequence of human GCG receptor (P47871 26-477): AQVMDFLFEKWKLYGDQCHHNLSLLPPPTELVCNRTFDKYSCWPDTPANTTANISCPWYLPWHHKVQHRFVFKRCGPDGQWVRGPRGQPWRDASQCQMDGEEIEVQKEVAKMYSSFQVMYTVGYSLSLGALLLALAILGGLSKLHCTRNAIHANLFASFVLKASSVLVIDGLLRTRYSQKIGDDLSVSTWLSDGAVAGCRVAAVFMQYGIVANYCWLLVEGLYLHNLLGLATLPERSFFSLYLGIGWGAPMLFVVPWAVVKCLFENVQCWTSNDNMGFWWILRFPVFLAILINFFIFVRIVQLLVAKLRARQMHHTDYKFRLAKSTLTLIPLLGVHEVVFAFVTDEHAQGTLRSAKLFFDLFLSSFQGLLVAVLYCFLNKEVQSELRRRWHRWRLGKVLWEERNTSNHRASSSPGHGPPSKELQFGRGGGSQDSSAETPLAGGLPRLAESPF

Binder	In vitro activity compared to native peptide (%) vs Glucagon [%]
B1	16.8
B2	195
B3	12.2
B4	0.1
B5	0.3
B6	< 0.1
B7	1.1
B8	0.4
B9	5.4
B10	12.7
B11	0.9
B12	0.3
B13	< 0.1
B14	0

Target: T1, human GIP receptor (human, UniProt P48546 22-466)
T1 sequence (looked up): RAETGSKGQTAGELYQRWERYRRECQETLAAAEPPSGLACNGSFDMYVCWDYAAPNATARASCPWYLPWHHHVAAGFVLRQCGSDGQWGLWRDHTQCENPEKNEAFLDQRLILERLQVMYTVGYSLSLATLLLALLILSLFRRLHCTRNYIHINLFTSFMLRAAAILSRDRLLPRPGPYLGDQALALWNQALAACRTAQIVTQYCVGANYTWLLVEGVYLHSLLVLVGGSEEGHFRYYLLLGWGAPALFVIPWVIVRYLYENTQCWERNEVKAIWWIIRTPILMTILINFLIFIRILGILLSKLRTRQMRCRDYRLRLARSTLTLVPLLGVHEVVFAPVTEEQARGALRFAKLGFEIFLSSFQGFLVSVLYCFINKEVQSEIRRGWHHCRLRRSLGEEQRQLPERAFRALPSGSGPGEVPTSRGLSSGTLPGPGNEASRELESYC
Test: cell-based or functional assay

Binder	In vitro activity compared to native peptide (%) vs GIP [%]
B1	0.3
B2	5.2
B3	35.5
B4	< 0.1
B5	0.7
B6	< 0.1
B7	< 0.1
B8	< 0.1
B9	3
B10	94.7
B11	1
B12	< 0.1
B13	0.4
B14	0.1
